From the Immune Epitope Database (IEDB) come the findings set out here.

Common to all, as to experiment: IEDB peptide-MHC binding, purified MHC/competitive/radioactivity; ≥ and ≤ were set here for values at or beyond the usual limits of such assays
Experiment [1] deals with HLA-A*02:01.
In experiment [2] the target is HLA-A*02:02.
The target of experiment [3] is HLA-A*02:03.
Experiment [4] addresses HLA-A*02:06.
Experiment [5] deals with HLA-A*68:02.
[6] abbreviates: source organism: Vaccinia virus WR.
Setting [7] is: source organism: Hepacivirus hominis.

Turning to KVTGSYNLV, the IC50 (commonly the concentration needed to halve the response being measured) was 754 nM in experiment [1] (setting [6]); 66 nM in experiment [2] (setting [6]); 43 nM in experiment [3] (setting [6]); 193 nM in experiment [4] (setting [6]); 538 nM in experiment [5] (setting [6]).
On the same counts, the results for KVYLSTFNM are 535 nM, 482 nM, 786 nM, 265 nM and 1820 nM.
For LAFVVFLLV, the IC50 in experiment [1] (source organism: SARS-CoV1) turned out to be 610 nM; in experiment [2] (source organism: SARS-CoV1), 458 nM; in experiment [3] (source organism: SARS-CoV1), 1270 nM; in experiment [4] (source organism: SARS-CoV1), 253 nM; in experiment [5] (source organism: SARS-CoV1) it was 1000 nM.
With LAISAVYFKA, the IC50 in experiment [1] (setting [6]) stood at 770 nM; in experiment [2] (setting [6]), 1430 nM; in experiment [3] (setting [6]), 363 nM; in experiment [4] (setting [6]), 659 nM; in experiment [5] (setting [6]), 802 nM.
On the same counts, the results for LALKNSQAEL are 3760 nM, 741 nM, 333 nM, 1250 nM and 3660 nM.
The corresponding values for LATLNTLITL are 848 nM, 139 nM, 338 nM, 323 nM and 1040 nM.
LAYYNSCMLT: the IC50 was determined as 485 nM in experiment [1] (setting [6]); 12 nM in experiment [2] (setting [6]); 16 nM in experiment [3] (setting [6]); 86 nM in experiment [4] (setting [6]); 4.9 nM in experiment [5] (setting [6]).
In the case of LIAGIILLIL, the concentration for half-maximal inhibition (IC50) in experiment [1] (setting [6]) came to 540 nM; in experiment [2] (setting [6]), 141 nM; in experiment [3] (setting [6]) it was 680 nM; in experiment [4] (setting [6]), 345 nM; in experiment [5] (setting [6]), 143 nM.
LIANIFTPLV: the half-inhibitory concentration (IC50) came out at 12 nM in experiment [1] (source organism: SARS-CoV1); 0.4 nM in experiment [2] (source organism: SARS-CoV1); 13 nM in experiment [3] (source organism: SARS-CoV1); 16 nM in experiment [4] (source organism: SARS-CoV1); 19 nM in experiment [5] (source organism: SARS-CoV1).
For the sequence LIDFYLCFL, the half-maximal inhibitory concentration (IC50) was determined as 0.9 nM in experiment [1] (source organism: SARS-CoV1); 8.3 nM in experiment [2] (source organism: SARS-CoV1); 61 nM in experiment [3] (source organism: SARS-CoV1); 11 nM in experiment [4] (source organism: SARS-CoV1); 93 nM in experiment [5] (source organism: SARS-CoV1).
On to LIQDWIPPL, for which the half-inhibitory concentration (IC50) in experiment [1] (setting [7]) was determined as 97 nM; in experiment [2] (setting [7]) it was 110 nM; in experiment [3] (setting [7]) it was 177 nM; in experiment [4] (setting [7]), 54 nM; in experiment [5] (setting [7]), 1420 nM.
As to LISFFGLFDI, the half-inhibitory concentration (IC50) in experiment [1] (setting [6]) came out at 175 nM; in experiment [2] (setting [6]), 76 nM; in experiment [3] (setting [6]), 108 nM; in experiment [4] (setting [6]) it was 171 nM; in experiment [5] (setting [6]), 82 nM.
In the case of LISLINSLV, the IC50 in experiment [1] (setting [6]) is 15 nM; in experiment [2] (setting [6]) it was 0.48 nM; in experiment [3] (setting [6]), 0.48 nM; in experiment [4] (setting [6]), 72 nM; in experiment [5] (setting [6]), 68 nM.
As to LIVAALVFL, the IC50 in experiment [1] (source organism: SARS-CoV1) is 18 nM; in experiment [2] (source organism: SARS-CoV1) it was 9.4 nM; in experiment [3] (source organism: SARS-CoV1) it was 136 nM; in experiment [4] (source organism: SARS-CoV1), 11 nM; in experiment [5] (source organism: SARS-CoV1), 302 nM.
For LIVILFIMFM, the 50% inhibitory concentration (IC50) in experiment [1] (setting [6]) amounted to 139 nM; in experiment [2] (setting [6]), 85 nM; in experiment [3] (setting [6]), 433 nM; in experiment [4] (setting [6]), 120 nM; in experiment [5] (setting [6]), 60 nM.
Take LIVMLLFAGV: the IC50 in experiment [1] (setting [7]) was determined as 1470 nM; in experiment [2] (setting [7]), 3390 nM; in experiment [3] (setting [7]), 358 nM; in experiment [4] (setting [7]), 169 nM; in experiment [5] (setting [7]), 4290 nM.
On to LIVNSVLLFL, for which the IC50 in experiment [1] (source organism: SARS-CoV1) worked out at 27 nM; in experiment [2] (source organism: SARS-CoV1) it was 3.7 nM; in experiment [3] (source organism: SARS-CoV1), 90 nM; in experiment [4] (source organism: SARS-CoV1) it was 11 nM; in experiment [5] (source organism: SARS-CoV1), 169 nM.
On to LIYDDNIDSI, for which the IC50 in experiment [1] (setting [6]) came to 658 nM; in experiment [2] (setting [6]), 121 nM; in experiment [3] (setting [6]), 26 nM; in experiment [4] (setting [6]), 212 nM; in experiment [5] (setting [6]), 199 nM.
For LLALLSCISV, the half-maximal inhibitory concentration (IC50) in experiment [1] (setting [7]) worked out at 2.4 nM; in experiment [2] (setting [7]), 0.77 nM; in experiment [3] (setting [7]), 1.3 nM; in experiment [4] (setting [7]), 16 nM; in experiment [5] (setting [7]), 2450 nM.
As to LLALQQLEV, the half-maximal inhibitory concentration (IC50) was 1 nM in experiment [1] (source organism: SARS-CoV1); 0.14 nM in experiment [2] (source organism: SARS-CoV1); 0.29 nM in experiment [3] (source organism: SARS-CoV1); 42 nM in experiment [4] (source organism: SARS-CoV1); 83 nM in experiment [5] (source organism: SARS-CoV1).
With LLAPITAYA, the concentration for half-maximal inhibition (IC50) turned out to be 2.9 nM in experiment [1] (setting [7]); 0.27 nM in experiment [2] (setting [7]); 0.61 nM in experiment [3] (setting [7]); 5.3 nM in experiment [4] (setting [7]); 1.5 nM in experiment [5] (setting [7]).
As to LLFLVLIML, the IC50 in experiment [1] (source organism: SARS-CoV1) amounted to 294 nM; in experiment [2] (source organism: SARS-CoV1), 154 nM; in experiment [3] (source organism: SARS-CoV1), 1370 nM; in experiment [4] (source organism: SARS-CoV1) it was 573 nM; in experiment [5] (source organism: SARS-CoV1), 1250 nM.
Take LLFNKVTLA: the IC50 was 5 nM in experiment [1] (source organism: SARS-CoV1); 0.95 nM in experiment [2] (source organism: SARS-CoV1); 1.1 nM in experiment [3] (source organism: SARS-CoV1); 9 nM in experiment [4] (source organism: SARS-CoV1); 288 nM in experiment [5] (source organism: SARS-CoV1).
